Consider two substances from publication PMC12260524, “Identification of a VPS29 isoform with restricted association to Retriever and Retromer accessory proteins through autoinhibition” (Proceedings of the National Academy of Sciences of the …, 2025).

The target in the assay is T1, GST-tagged VPS29C (Homo sapiens, UniProt Q9UBQ0).
T1 construct: made in house; host or cells: E. coli BL21 (DE3)
The experiment in a line: Isothermal titration calorimetry (ITC) of peptides with GST-VPS29C. Particulars: 25 °C, single-site model. It is filed as binding. How it is done: All the bacterial constructs were expressed in BL21 (DE3) competent cells using the standard autoinduction method as described previously. Cell cultures were harvested by centrifugation at 6,000 × g for 5 min at 4 °C and the cell pellets were then stored at −80 °C until cell lysis. To obtain individual Retromer subunit including VPS26A, GST-VPS29B, and GST-VPS29C, the frozen cell pellet was resuspended in protein buffer (50 mM Tris-HCl pH 7.5, 200 mM NaCl, 2 mM β-mercaptoethanol) supplemented with 50 μg/mL benzamidine, 100 units of DNase I. In all cases, the resuspended cells were lysed through a Constant System TS-series high pressure cell disruptor. The soluble homogenate cleared by centrifugation was loaded onto either Talon resin (Clontech) for His-tagged VPS26A or Glutathione Sepharose (GE Healthcare) for GST-tagged VPS29B/VPS29C. The fusion-tagged containing proteins eluted from the resin were then further purified using size exclusion chromatography (SEC) on a HiLoad® 16/600 Superdex 200 or Superdex 75 column equilibrated with protein buffer. For Retromer, the soluble homogenate was first loaded onto Talon resin (Clontech) followed by glutathione Sepharose (GE healthcare) to obtain the correct stoichiometry ratio of the Retromer complex. Removal of the GST tag from the constructs was performed using an on-column cleavage approach with PreScission protease. The fusion tag free protein was further purified using SEC on a HiLoad® 16/600 Superdex 200 column as described above. Protein integrity was validated using SDS-PAGE gel and concentration was measured using Nanodrop at OD280.
All microcalorimetry experiments were carried out at 25 °C using a PEAQ ITC (Malvern, UK) in protein buffer. […] In the macrocyclic peptide experiment, the equivalent percentage (v/v) of DMSO was added into the target protein to avoid buffer mismatch. All ITC experiments were performed with a single injection of 0.4 μL followed by a series of 12 injections of 3.2 μL each, spaced 180 s apart, and stirred at 750 rpm. To calculate the heat exchange of interactions, the observed peaks were integrated with the subtraction of heat of dilution from the background. The thermodynamic parameters including Kd, ΔH, ΔG, and −TΔS were obtained by fitting and normalizing the data to a single-site binding model using Malvern software package. The stoichiometry was adjusted initially, and if the value was near 1, N was set to exactly 1.0 for computation. To ensure the data were reproducible, each experiment was run at least twice.
A general note: ITC needs no label: the signal is the heat of the interaction.

Where [1] appears, read: 300 μM peptide into 10 μM GST-VPS29C.

As to “VPS35L 28-37: natural peptide of the amino-terminal region of VPS35L containing a Pro-Leu motif (EFGDYHPLKP)”, the Kd result (300 μM peptide titrated into 10 μM GST-VPS29C, protein buffer (50 mM Tris-HCl pH 7.5, 200 mM NaCl, 2 mM β-mercaptoethanol), each experiment run at least twice) is “No binding detected”.

As to “VPS35L 16-38: natural peptide of the amino-terminal region of VPS35L containing a Pro-Leu motif (EFASCRLEAVPLEFGDYHPLKPI)”, under setting [1], the “-TΔS” value came out at 4.26 ± 2.04 kcal/mol, the ΔG is listed as -5.26 ± 0.15 kcal/mol and the ΔH was -9.54 ± 2.50 kcal/mol.
